{"source": "patent US9856460B2", "about": "“Nucleic acids encoding synthetic scaffolds and host cells genetically modified with the nucleic acids” (The Regents of the University of California, priority 2008, dated 2018)", "tested_on": "mevalonate biosynthetic pathway", "assay": "Mevalonate production with synthetic scaffolds in E. coli", "type": "cell-based, Escherichia coli", "experimental": "The scalability of the co-recruitment strategy was tested by building separate scaffold devices capable of co-localizing multiple enzymes. Scaffolds provide a means for physically separating the binding elements for design control from the catalytic activities. Thus, the only modification to the enzyme necessary for gaining modular control over complex formation is the addition of a single interaction ligand to each enzyme. A peptide ligand specific for a corresponding protein-protein interaction domain was recombined to the C-terminus of each enzyme of the mevalonate biosynthetic pathway (FIG. 3a). Scaffolds were built by tethering together, via flexible nine amino acid glycine-serine linkers, different numbers of three protein-protein interaction domains from metazoan genomes: the GTPase Binding Domain (GBD) from the actin polymerization switch N-WASP, the SH3 domain, and the PSD95/DlgA/Zo-1 (PDZ) domain from the adaptor protein syntrophin (see Table 1, below).\nBy varying the number of repeats of these interaction domains, the ratio of individual pathway enzymes co-localized to the resultant complex could be controlled. Scaffolds were built with a single GBD domain for recruiting AtoB and varying numbers of SH3 and PDZ domains for recruiting HMGS and HMGR, respectively. A matrix of scaffolds was made with the architecture (N-terminal to C-terminal) of GBDxSH3yPDZz where x=1 and y and z were varied to be 1, 2, or 4. For separate inducible control, the pathway enzymes were placed under transcriptional control of the tetracycline-inducible promoter (Ptet), and the scaffolds were under transcriptional control of the arabinose-inducible promoter (PBAD). In an effort to lower the metabolic load imposed on the production host, mevalonate production experiments were conducted with low expression levels of the mevalonate pathway enzymes (7 nM aTc) and a high scaffold expression level (250 μM arabinose) to improve pathway efficiency.", "note": "“Also recorded” adds a separate entry of the source.", "data": [{"molecule": "G1S2P2: optimized scaffold polypeptide with 1, 2, and 2 repeats of GBD, SH3, and PDZ domains (SEQ ID NO:37) (protein) MTKADIGTPSNFQHIGHVGWDPNTGFDLNNLDPELKNLFDMCGISEAQLKDRETSKVIYDFIEKTGGVEAVKNELRRQAPGSGSGSGGSMAEYVRALFDFNGNDEEDLPFKKGDILRIRDKPEEQWWNAEDSEGKRGMIPVPYVEKYGSGSGSGGSMAEYVRALFDFNGNDEEDLPFKKGDILRIRDKPEEQWWNAEDSEGKRGMIPVPYVEKYGSGSGSGGSMLQRRRVTVRKADAGGLGISIKGGRENKMPILISKIFKGLAADQTEALFVGDAILSVNGEDLSSATHDEAVQALKKTGKEVVLEVKYMKEVSPYFKGSGSGSGGSMLQRRRVTVRKADAGGLGISIKGGRENKMPILISKIFKGLAADQTEALFVGDAILSVNGEDLSSATHDEAVQALKKTGKEVVLEVKYMKEVSPYFKGS", "values": [{"measurement": "change in mevalonate production with increasing concentrations of glycerol", "setting": "glycerol as carbon source, increases saturated at approximately 4% glycerol", "value": "improved dramatically; also recorded: significant increases"}, {"measurement": "fold increase in mevalonate production compared to the unscaffolded pathway (G0S0P0)", "setting": "low pathway enzyme expression (7 nM aTc), high scaffold expression (250 μM arabinose), 4% glycerol", "value": 77, "unit": "fold"}, {"measurement": "fold more mevalonate than G0S0P0-GFP", "setting": "pathway under pTET, scaffold under pBAD, control expresses GFP instead of scaffold", "value": 77, "unit": "fold"}]}]}
